Patent US20210206849A1 (UNIVERSITY OF CONNECTICUT, published 2021)

Assays:
Experiment in all cases: flow cytometry, biotinylated Skint8-Ig and streptavidin-PE on transfected HEK-293 cells
[1] = biological target: T1, mouse CD28 on transfected HEK-293 cells (mouse, UniProt P31041 20-218)
T1 construct: whole, on cells
T1 sequence (looked up): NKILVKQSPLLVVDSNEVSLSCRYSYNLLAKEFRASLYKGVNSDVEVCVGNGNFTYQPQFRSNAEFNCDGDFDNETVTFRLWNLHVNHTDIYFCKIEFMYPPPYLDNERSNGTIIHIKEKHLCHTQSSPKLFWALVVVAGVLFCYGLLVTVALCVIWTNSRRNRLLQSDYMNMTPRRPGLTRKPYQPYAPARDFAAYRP
Experimental: (§1) FIG. 15. The expression pattern of the Skint8 putative receptor. (A, B) Spleen cells were harvested from C57BL/6 mice. To obtain activated T cells, the spleen cells were incubated with anti-CD3 (1 μg/ml) and anti-CD28 (0.5 μg/ml) antibodies for 3 days. To obtain activated B cells, monocytes and DCs, the spleen cells were incubated with LPS (10 μg/ml) for 3 days. The freshly harvested and activated immune cells were stained with biotinylated Skint8-Ig or control Ig, followed by streptavidin-PE, as well as anti-CD4, CD8, B220, CD11b, or CD11c antibodies to identify the immune cells. (A) Representative flow cytometric profiles and (B) Statistical analysis showing the binding of Skint8-Ig or control Ig to freshly harvested and activated immune cells. (B) Data are presented as relative fluorescence intensity (RFI) for cell binding of Skint8-Ig versus control Ig. (C) HEK-293 cells were transfected with an expression vector containing the murine PD-, CD28, BTLA, CTLA-4, or ICOS gene and screened for cells stably expressing each gene. The transfected cells were stained with antibody against the respective PD-1, CD28, BTLA, CTLA-4, or ICOS protein (open histograms) or isotype antibody (shaded histograms). Representative flow cytometric profiles showing the expression of each receptor. (D) PD-, CD28, BTLA, CTLA-4, or ICOS gene-transfected HEK-293 cells were stained with biotinylated Skint8-Ig or control Ig, followed by streptavidin-PE. Representative flow cytometric profiles showing the binding of Skint8-Ig (open histograms) or control Ig protein (shaded histograms) to the transfected cells. The data are representative of 3 independent experiments.
(§2) Single cell suspensions of organs were stained with the fluorochrome-conjugated antibodies protein as described (38-41). Direct or indirect staining of fluorochrome-conjugated antibodies included: CD4, CD8, B220, CD11c, CD11b, F4/80, CD69, CD44, CD62L, IFNγ, TNFα, IL-2, IL-10, CD28, CTLA-4, PD-1, BTLA, and ICOS (BioLegend, or BD Biosciences, San Jose, Calif., San Diego, Calif.). Skint8-g, Skint8 IgV-Ig or Skint8 IgC-Ig proteins were biotinylated with sulfo-NHS-LC-Biotin (Pierce) and detected by streptavidin-PE. The samples were analyzed on a FACSCalibur or LSRFortessa X-20 Cell Analyzer (BD Biosciences). Data analysis was done using FlowJo software (Ashland, Oreg.).

[2] = biological target: T2, mouse ICOS on transfected HEK-293 cells (mouse, UniProt Q9WVS0 21-200)
T2 construct: whole, on cells
T2 sequence (looked up): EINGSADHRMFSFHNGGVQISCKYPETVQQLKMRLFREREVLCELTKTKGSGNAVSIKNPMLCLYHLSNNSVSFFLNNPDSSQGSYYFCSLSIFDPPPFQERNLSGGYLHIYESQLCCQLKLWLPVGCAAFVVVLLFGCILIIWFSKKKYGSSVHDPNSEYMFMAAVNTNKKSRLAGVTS
Experimental: as §1, §2

[3] = biological target: T3, mouse BTLA on transfected HEK-293 cells (mouse, UniProt Q7TSA3 30-306)
T3 construct: whole, on cells
T3 sequence (looked up): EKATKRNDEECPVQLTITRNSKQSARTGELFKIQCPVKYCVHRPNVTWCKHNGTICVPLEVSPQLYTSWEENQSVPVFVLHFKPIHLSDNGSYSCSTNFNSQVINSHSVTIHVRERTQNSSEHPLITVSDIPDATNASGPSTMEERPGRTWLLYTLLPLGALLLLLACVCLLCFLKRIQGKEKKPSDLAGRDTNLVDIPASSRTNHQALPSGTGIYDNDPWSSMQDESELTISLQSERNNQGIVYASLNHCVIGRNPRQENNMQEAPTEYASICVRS
Experimental: as §1, §2

[4] = biological target: T4, mouse CTLA-4 on transfected HEK-293 cells (mouse, UniProt P09793 36-223)
T4 construct: whole, on cells
Experimental: as §1, §2

[5] = biological target: T5, mouse PD-1 on transfected HEK-293 cells (mouse, UniProt Q02242 25-288)
T5 construct: whole, on cells
T5 sequence (looked up): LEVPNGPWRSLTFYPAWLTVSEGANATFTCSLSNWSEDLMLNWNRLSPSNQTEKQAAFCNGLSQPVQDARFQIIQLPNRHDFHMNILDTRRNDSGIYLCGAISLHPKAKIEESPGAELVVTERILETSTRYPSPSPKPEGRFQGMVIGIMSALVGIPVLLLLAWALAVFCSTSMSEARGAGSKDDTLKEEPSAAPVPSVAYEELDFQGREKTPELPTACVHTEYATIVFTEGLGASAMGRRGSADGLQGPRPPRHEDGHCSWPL
Experimental: as §1, §2

Measured: binding result

B1: Mouse Skint8-Ig fusion protein (Fc fusion)
chain: EKLRVTTPTRHLLARVGGQAELSCQVIPPHSVMHMEVRWFRSGHSQPVYLYRGGHKMSEEAAPEYANRTEFVKEAIGEGKVSLRIYNINILDDGPYQCSFNDSGFIDVAIMNLNVTAVGLETEIHVQAPDADGVMVECNTGGWFPRPQMEWRDSKGATLPHSLKSYSQDEARFFHMKMTLLLTNMSHGSIICCISNPVTGEEKQTSIIPRGPTIKPCPPCKCPAPNLLGGPSVFIFPPKIKDVLMISLSPIVTCVVVDVSEDDPDVQISWFVNNVEVHTAQTQTHREDYNSTLRVVSALPIQHQDWMSGKEFKCKVNNKDLPAPIERTISKPKGSVRAPQVYVLPPPEEEMTKKQVTLTCMVTDFMPEDIYVEWTNNGKTELNYKNTEPVLDSDGSYFMYSKLRVEKKNWVERNSYSCSVVHEGLHNHHTTKSFSRTPGK
modifications: biotinylated with sulfo-NHS-LC-Biotin in the flow cytometry assays (sites not given)
notes: Made in HEK-293 cells; also called Skint8-IgG Fc
no binding: all assays above
